The supplement of paper PMC9170038

System: MS2 coat protein
Assay: apparent KD of MS2 coat protein; designed switch direction (-1 OFF switch, 1 ON switch): 1; higher = weaker reporter binding
Procedure, shortened: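 Stalled E. coli RNA polymerase transcribed designed RNA switches on Illumina chips, which were then titrated with SNAP-549-labelled MS2 coat protein, doubling from 0.7 or 1.5 nM to 3 µM. Steps lasted from 0.8–1.5 h at the lowest concentration to 10–20 min at the highest. The apparent KD is each design's median over clusters of curve-fitted normalised fluorescence.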

[1] = input ligand: microRNA oligo, concentration not stated
[2] = Eterna round: R95, input ligand: microRNA oligo, concentration not stated

Sequence | apparent KD of MS2 coat protein (input ligand: FMN 200 uM) [nM] | apparent KD of MS2 coat protein [1] [nM] | apparent KD of MS2 coat protein (input ligand: none) [nM] | apparent KD of MS2 coat protein (Eterna round: R95, input ligand: FMN 200 uM) [nM] | apparent KD of MS2 coat protein [2] [nM] | apparent KD of MS2 coat protein (Eterna round: R95, input ligand: none) [nM]
GGAAACUUGAGAGGAUAUGUAGAGGAUCACCCUACAGAAGGCUCUUUUGAGAGGAUAUGUAGAGGAUCACCCUACAGAAGGCUC [pwkr ssNG DX.14] (Eterna round: R96, puzzle: Same State NG 1) | 30.7 | 26.5 | 87 |  |  | 
UGUUGUAUUACAGGAUAUCUAUUAUAUUUAUUUAGAGAAGGGUAUUCACAUGAGGAUCACCCAUGUAUAUACGAGGAAGUUGUG [JMF's solution 15] (Eterna round: R96, puzzle: Same State NG 1) |  | 36.4 |  |  |  | 
CCCUGAGGUAGCCCACAGGGACAUGAGGAUCACCCAUGUACACAGGAUAUCGAGGGCUCCGCCUUCGAGAAGGGUGAUCAAACU [Geditedi] (Eterna round: R96, puzzle: Same State NG 3) | 148 | 18.2 | 53.4 |  |  | 
GAAUAGUUGAGAGGAUAUCUAUUAUAAAAGGAUAGAGAAGGUUUUAACAUGAGGAUCACCCAUGUAGGACUAUAUAUGUGAAUA [Parity 100 - Jieux - Same State NG 1] (Eterna round: R96, puzzle: Same State NG 1) | 16.2 | 13.6 | 16.1 |  |  | 
UCGGGCGUACUUGCUGACAUGAGGAUCACCCAUGUCCUUGCGCAGGAUAUGGUUCCGUUUCGGUUCCAGAAGGUCCUGGCUGCU [salish99_SSNG3_r04_319] (Eterna round: R96, puzzle: Same State NG 3) | 30.5 | 19.5 | 33.2 |  |  | 
GCCGCGUUUCGCGCCUACAUGAGGAUCACCCAUGUUUGUUGGCAGGAUAUCGUCCGCUCUGCGGGCGAGAAGGGCUGUUGUGGU [salish99_SSNG3_R04_025] (Eterna round: R96, puzzle: Same State NG 3) | 38.4 | 18 | 25.4 |  |  | 
AGCCGAGACUGAGGAUAUUUGUAUCUACAUGAGGAUCACCCAUGUAGCGUCACGUGGUAGUGAUCGAAGAAGGCAGCUCGGCGC [MOD3 of Omei's SS(NG)2 Cv2] (Eterna round: R96, puzzle: Same State NG 2) | 11.1 | 11.2 | 21.9 |  |  | 
GAUAAACAUGAGGAUCACCCAUGUAAUAAUAUGGGAGGAUAUCAGAAUGUAUGUAUGUAAUGAGAAGGCCUAAUAG [Mat - Same State 1 - Mod of Eli - D72] (puzzle: Same State 1) |  |  |  | 76.7 | 229 | 391
GGUGCCAAUAAAGCCUACAUGAGGAUCACCCAUGUAUGUAGGUAGGAUAUCGUUUGCUUUGCAAACGAGAAGGGCCUAGGCACC [JL SSNG3 1.20] (Eterna round: R96, puzzle: Same State NG 3) | 22.5 | 40.2 | 48.3 |  |  | 
GGAGCCGGCACCGAGGAUAUUCAUAUUAAAACAUGAGGAUCACCCAUGUAGGCCAGAAGGCCUUGGGAGAAGGCGGAUCGGCUCG [Xeonanis] (Eterna round: R96, puzzle: Same State 2) | 33.2 | 305 | 544 |  |  | 
GAGUUACAUGAGGAUCACCCAUGUUGUUGUGGAUAAGGAUAUAUGGUAGGAAGAGGAAUGAUAGAAGGUAUUAGGG [JR_SS1_Sub064] (puzzle: Same State 1) |  |  |  |  | 34.7 | 
GGCCUGUGUCAAGGAUAUGCUACCGUUUCGGUAGCAGAAGGUGAUCACAUGAGGAUCACCCAUGUUUACGCGAACACGCGCGCC (Eterna round: R96, puzzle: Same State NG 1) | 193 | 70.6 | 79.6 |  |  | 
